Results from PMC2930062 (Journal of cellular biochemistry, 2010).

Molecular target: T1, RANBP17^1-252, GAL4 DNA binding domain fusion (pM) (human (cDNA library of DU145 cells), UniProt Q9H2T7 1-252)
T1 sequence (looked up): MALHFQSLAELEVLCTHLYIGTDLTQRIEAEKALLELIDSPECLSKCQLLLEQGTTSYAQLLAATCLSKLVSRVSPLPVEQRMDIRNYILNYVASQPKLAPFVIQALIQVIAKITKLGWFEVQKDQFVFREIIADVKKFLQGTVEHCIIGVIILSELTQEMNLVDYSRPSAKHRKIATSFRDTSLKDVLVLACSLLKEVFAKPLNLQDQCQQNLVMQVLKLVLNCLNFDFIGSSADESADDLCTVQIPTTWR
Test: two-hybrid

B1: E12^508-654, VP16 activation domain fusion (pVP16) (domain or fragment, human, UniProt P15923 508-654, looked up)
chain: TSAADHSEEEKKELKAPRARTSPDEDEDDLLPPEQKAEREKERRVANNARERLRVRDINEAFKELGRMCQLHLNSEKPQTKLLILHQAVSVILNLEQQVRERNLNPKAACLKRREEEKVSGVVGDPQMVLSAPHPGLSEAHNPAGHM
fold increase in luciferase activity against empty vector transfectants: 5.7 fold
